Assay results as given in article PMC8130760.

Target: human IL-15Rα (captured on the surface plasmon resonance sensor chip) (human) (UniProt Q13261)
Assay: SPR

Sequence of UniProt Q13261 (Q13261 31-267): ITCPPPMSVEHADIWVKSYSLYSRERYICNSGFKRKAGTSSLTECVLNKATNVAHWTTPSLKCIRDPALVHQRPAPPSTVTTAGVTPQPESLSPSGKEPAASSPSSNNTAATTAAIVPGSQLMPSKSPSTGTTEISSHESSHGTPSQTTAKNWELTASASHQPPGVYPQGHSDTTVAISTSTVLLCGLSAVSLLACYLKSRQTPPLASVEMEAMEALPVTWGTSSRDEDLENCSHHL

Substance | Kd | koff | kon
NKTR-255, polyethylene glycol-conjugate of recombinant human interleukin-15 (from UniProt P40933 49-162) (ligand) | 0.085 nM | 6.7e-05 s⁻¹ | 780000 M⁻¹ s⁻¹
recombinant human interleukin-15 (rhIL-15) (from UniProt P40933 49-162) (ligand) | 0.019 nM | 9.3e-05 s⁻¹ | 5.1e+06 M⁻¹ s⁻¹
